This assay has as its target human FcRn mut (L320A, L321A) co-transfected with human β2M, stably overexpressed on HEK293 cells (human) (UniProt P55899). Kind of assay: flow cytometry competition, Argx-113 against biotin-hIgG (100 μg/mL) on HEK293 cells overexpressing human FcRn mut, pH 6.0. (A flow cytometer gives signals particle by particle.)

The results in this text go back to patent publication WO2021160116A1.

Chain of human FcRn mut (L320A, L321A) co-transfected with human β2M, stably overexpressed on HEK293 cells (human) (P55899 24-365 L343A/L344A, chain 1 of 2): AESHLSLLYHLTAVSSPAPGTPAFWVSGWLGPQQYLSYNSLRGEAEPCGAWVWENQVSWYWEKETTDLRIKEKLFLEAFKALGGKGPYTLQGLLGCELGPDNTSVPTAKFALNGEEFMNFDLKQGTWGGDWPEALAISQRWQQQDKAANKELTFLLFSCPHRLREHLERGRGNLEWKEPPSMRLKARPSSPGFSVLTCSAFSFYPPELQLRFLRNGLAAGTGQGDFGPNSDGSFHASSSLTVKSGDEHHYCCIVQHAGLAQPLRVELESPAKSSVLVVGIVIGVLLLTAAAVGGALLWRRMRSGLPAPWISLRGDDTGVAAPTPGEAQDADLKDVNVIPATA
Chain of human FcRn mut (L320A, L321A) co-transfected with human β2M, stably overexpressed on HEK293 cells (human) (P61769 21-119, chain 2 of 2, further chain): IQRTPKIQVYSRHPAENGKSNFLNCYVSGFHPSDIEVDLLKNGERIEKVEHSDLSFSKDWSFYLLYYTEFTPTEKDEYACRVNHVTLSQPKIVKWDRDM

In general, IC50 refers to the concentration that inhibits the measured activity by half. The low end stands for inhibition by little substance, the high end for a need for much substance. Argx-113 gave an IC50 of 9.77 nM.
